Data on 12 molecules can be found in patent US20230399403A1 (BIONTECH, published 2023).

In experiment [1] the target is T1, Recombinant human PD-1 human-FC Chimera (R&D Systems) (human, UniProt Q15116 25-170).
T1 construct: Bought construct; also called recombinant human-PD-1 extracellular domain; hPD-1 (ELISA); not shown: human Fc part of the bought chimera
Nature of the experiment: ELISA, coated recombinant human PD-1 human-Fc chimera. How it is done: (§1) The binding potency of chimeric and humanized anti-PD-1 antibodies to recombinant human-PD-1 extracellular domain was determined by ELISA. Recombinant human PD-1 human-FC Chimera (R&D Systems) was coated on 384-well MaxiSorp™ flat bottom plates (Nunc) at a concentration of 0.625 μg/mL in PBS (Vendor) for 60 minutes at room temperature. Coated plates were washed three times with PBS, 0.1% Tween (PBS-T), blocked by incubation with PBS, 2% BSA, 0.05% Tween for 60 minutes at room temperature, and washed for an additional three times with PBS-T. Anti-PD-1-antibodies were added in PBS, 0.5% BSA, 0.05% Tween (ELISA buffer) in concentrations ranging from 1,000 to 0.06 ng/mL or 2,500 to 0.15 ng/mL and the plate was incubated for 60 minutes at room temperature. […] After 3 washes with PBS-T, horseradish peroxidase coupled goat-anti-human-IgG (Fab′)₂ fragment (AbD Serotec; Cat. No. STAR126P) was added in ELISA buffer at a dilution of 1:5,000. The plate was incubated for 60 minutes at room temperature, and washed 6 times with PBS-T before TMB solution (Thermo Fisher Scientific) was added. After 10 minutes HCl was added and the absorbance at wavelengths of 450 and 620 nm recorded using a Tecan Infinite M1000 reader. Data was fitted with a 4-parameter logistic model and EC50 values calculated using GraphPad Prism 8.4.3 (GraphPad Software, San Diego, CA, USA).
For orientation: An ELISA detects its analyte on a solid surface through an enzyme-linked reagent.

The target of experiment [2] is T2, full-length human PD-1 expressed on cells (human, UniProt Q15116 25-288).
T2 construct: also called HEK-293 cells ectopically expressing full-length human-PD1 (BPS Biosciences)
Nature of the experiment: cell binding, HEK-293 cells expressing full-length human PD-1, CellInsight CX5 imaging. As to the method: (§2) Binding of chimeric and humanized anti-PD-1 antibodies to cell surface expressed hPD-1 was analyzed using HEK-293 cells ectopically expressing full-length human-PD1 (BPS Biosciences; Cat. No. 60680). Cell cultures were grown in MEM containing 10% FCS, ix MEM NEAA, 1 mM Na pyruvate and 100 μg/mL Hygromycin B. Hygromycin B was omitted when cells were plated for testing antibody binding. 1,000 cells in 20 μL medium were seeded per well in black 384-well cell-culture treated plates with clear bottom and were incubated for 2 hours at 37° C. and 5% CO₂. Anti-PD-1 antibodies were added in 5 μL medium to final concentrations ranging from 1,000 to 0.06 ng/mL or 620 to 0.45 ng/mL. […] After an 18 hours incubation at 37° C. and 5% CO₂, plates were washed once with 25 μL PBS, 0.05% Tween 20 (cell wash buffer) and Alexa-Fluor-488-conjugated AffiniPure goat-anti-human-IgG F(ab′)₂ fragment (Vendor) was added at a concentration of 0.8 μg/mL in 20 μL medium. Plates were incubated for 4 hours at 37° C. and 5% CO₂ in the dark, washed once with 25 μL cell wash buffer and incubated for 10 minutes with 20 μL medium containing 5 μg/ml Hoechst (Invitrogen). Cell-associated immunofluorescent signals were recorded using a CellInsight CX5 high content imager device (Thermo Fisher). Data was fitted with a 4-parameter logistic model and EC50 values calculated using GraphPad Prism 8.4.3.

The target of experiment [3] is T2, full-length human PD-1 expressed on …. Description: cell-based or functional assay.
Experiment [4] has as its target T1, Recombinant human PD-1 human-FC Chimera …. Nature of the experiment: ELISA, coated recombinant human PD-1 human-Fc chimera. How it is done:
as §1
This is another data set of the same source.

Experiment [5] addresses T2, full-length human PD-1 expressed on …. Nature of the experiment: cell-based or functional assay. The source holds these as a separate data set.
For experiment [6] the target is unchanged. Description: cell binding, HEK-293 cells expressing full-length human PD-1, CellInsight CX5 imaging. As to the method: as §2
This is another data set of the same source.

Where two headings read alike, the source gives them in different places.

T1 sequence (Q15116 25-170, change not shown): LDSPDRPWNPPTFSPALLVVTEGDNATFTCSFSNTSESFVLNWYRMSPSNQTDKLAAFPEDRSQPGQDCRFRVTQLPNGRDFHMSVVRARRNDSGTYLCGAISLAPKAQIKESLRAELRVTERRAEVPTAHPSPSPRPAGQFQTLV
T2 sequence (Q15116 25-288 limits assumed): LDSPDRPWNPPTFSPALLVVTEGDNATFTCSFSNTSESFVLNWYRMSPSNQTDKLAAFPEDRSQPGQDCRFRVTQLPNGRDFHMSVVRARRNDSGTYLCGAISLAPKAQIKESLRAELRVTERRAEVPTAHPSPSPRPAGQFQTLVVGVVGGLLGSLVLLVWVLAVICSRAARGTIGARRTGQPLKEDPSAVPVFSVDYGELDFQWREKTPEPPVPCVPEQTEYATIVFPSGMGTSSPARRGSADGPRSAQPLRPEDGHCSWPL

B1: MAB-19-0208 (antibody, human IgG1, V domains shown)
VH: QSVEESGGRLVTPGTPLTLTCTVSGFSLSRYYISWVRQAPGKGLEWIGSFYADSGTTWYATWVKGRFTFSTASSTTVDLKMTSPTTEDTATYFCARNSGDAQFNIWGPGTLVTVSS
VL: AAVLTQTPSPVSAAVGGTVSISCQSSESVYNKNQLCWYQQKPGQRPKLLIYDASTLASGVPSRFSGSGSGTQFTLTISDVQSDAAATYYCAGGYSVTSDTTFGGGTEVVVR
notes: Chimeric rabbit/human antibody, human IgG1 constant parts with L234A and L235A (LALA); also called chimeric anti-PD-1 MAB-19-0208
Take B1: the EC50 in experiment [1] turned out to be 4 ng/mL; in experiment [2] it was 13.9 ng/mL. Also, the “hPD-1 blockade assay IC50” value in experiment [3] stood at 870 ng/mL.

B2: MAB-19-0217 (antibody, human IgG1, V domains shown)
VH: QSVEESGGRLVTPGTPLTLTCTVSGFSLSRYYMTWVRQAPGKGLEWIGIIYPDTGTTWYASWVKGRFTFSKTSSTTVDLKMTSPTTEDTATYFCARSTTDAQFNIWGPGTLVTVSS
VL: AAVLTQTPSPVSAAVGGTVSISCQSSENVYTDNQLCWYQQKPGQRPKLLIYDASTLASGVPSRFSGSGSGTQFTLTISGVQSDDAATYYCAGGYSTTSDTTFGGGTEVVVK
notes: Chimeric rabbit/human antibody, human IgG1 constant parts with L234A and L235A (LALA); also called chimeric anti-PD-1 MAB-19-0217
Take B2: the EC50 was 9.2 ng/mL in experiment [1] and 6.3 ng/mL in experiment [2]. For the same molecule, the “hPD-1 blockade assay IC50” value in experiment [3] amounted to 720 ng/mL.

B3: MAB-19-0202 (antibody, V domains shown)
VH: QSVEESGGRLVTPGTPLTLTCTVSGFSLYSYNMGWVRQAPGKGLEYIGIISGGTIGHYASWAKGRFTISKTSSTTVDLKMTSLTTEDTATYFCARAFYDDYDYNVWGPGTLVTVSS
VL: AAVLTQTPSPVSAAVGGTVTISCQSSQSVYGNNQLSWYQQKPGQPPKLLIYQASKLETGVPSRFKGSGSGTQFTLTISDLESDDAATYYCAGGYSSSSDTTFGGGTEVVVK
notes: Chimeric rabbit/human antibody: rabbit variable regions cloned N-terminal of human IgG1 / kappa constant parts with L234A and L235A (LALA)
Turning to B3, the EC50 in experiment [4] amounted to 4 ng/mL; in experiment [1], 3.5 ng/mL; in experiment [6], 0.5 ng/mL. Also, the entries for the “hPD-1 blockade assay IC50” value in experiment [5] and in experiment [3] were 56 ng/mL and 324 ng/mL, respectively.

B4: MAB-19-0598 (antibody, IgG1, V domains shown)
VH: QVQLVESGGDVVKPGRSLRLSCKASGIDFSSVYYMCWVRQAPGKGLEWIACIYVGSSGVSYYATWAKGRFTISRDTSTSTLFLQMNSLRAGDTATYYCARAGYVGAVYVTLTRLDLWGQGTLVTVSS
VL: DIQMTQSPSSLSASVGGTVTITCQSSQSIYTNNDLAWYQQKPGQPPKLLIYDASKLASGVPSRFSGSGSGTQFTLTISSLQSEDAATYYCLGGYDDDADNAFGGGTEVVVK
notes: Recombinant humanized hIgG1-LALA antibody
B4: the EC50 in experiment [4] was found to be 8.8 ng/mL; in experiment [6] it was 5.7 ng/mL. Besides, the “hPD-1 blockade assay IC50” value in experiment [5] turned out to be 368 ng/mL.

B5: MAB-19-0594 (antibody, IgG1, V domains shown)
VH: EVQLEESGGGLVKPGGSLRLSCAASGIDFSSVYYMCWVRQAPGKGLEWVSCIYVGSSGVSYYATWAKGRFTISRDNSKNTLYLQMNSLRAEDTAVYYCARAGYVGAVYVTLTRLDLWGRGTLVTVSS
VL: DIQMTQSPSSLSASVGGTVTITCQSSQSIYTNNDLAWYQQKPGQPPKLLIYDASKLASGVPSRFSGSGSGTQFTLTISSLQSEDAATYYCLGGYDDDADNAFGGGTEVVVK
notes: as for B4
For the molecule B5, the EC50 was found to be 14.6 ng/mL in experiment [4] and 9.5 ng/mL in experiment [6]. For the same molecule, the “hPD-1 blockade assay IC50” value in experiment [5] turned out to be 311 ng/mL.

B6: MAB-19-0583 (antibody, IgG1, V domains shown)
VH: QVQLVESGGDVVKPGRSLRLSCKASGIDFSSVYYMCWVRQAPGKGLEWIACIYVGSSGVSYYATWAKGRFTISRDTSTSTLFLQMNSLRAGDTATYYCARAGYVGAVYVTLTRLDLWGQGTLVTVSS
VL: DVVMTQSPSTVSASVGDRVTLTCQSSQSIYTNNDLAWYQQKPGQPPKLLIYDASKLASGVPDRFSGSGSGTDFTLTISSLQADDFATYYCLGGYDDDADNAFGQGTKVEIK
notes: as for B4
With B6, the EC50 came to 7.5 ng/mL in experiment [4] and 3.6 ng/mL in experiment [6]. Further, the “hPD-1 blockade assay IC50” value in experiment [5] came out at 188 ng/mL.

B7: MAB-19-0223 (antibody, human IgG1, V domains shown)
VH: QEHLVESGGGLVQPEGSLTLTCKASGIDFSDTYWICWVRQPPGKGLEWIGCIGIGGSGSTYYAGWAKGRFTISKTSSTTVTLQMTTLTDADTATYFCATEIPYFNVWGPGTLVTVSS
VL: AQVLTQTPSSVSAAVGGTVTINCQSSQSVYNKNWLAWYQQKPGQPPKLLIYDASKLTSGVPSRFKGSGSGTQFTLTISGVQSDDAATYYCQGTYDVNGWLVAFGGGAEVVVK
notes: Chimeric rabbit/human antibody, human IgG1 constant parts with L234A and L235A (LALA); also called chimeric anti-PD-1 MAB-19-0223
Consider B7, for which the values for the EC50 in experiment [1] and in experiment [2] were 6.6 ng/mL and 7 ng/mL, respectively. Moreover, the “hPD-1 blockade assay IC50” value in experiment [3] was 913 ng/mL.

B8: MAB-19-0233 (antibody, human IgG1, V domains shown)
VH: QSLEESGGDLVKPGASLTLTCKASGIDFSSVYYMCWVRQAPGKGLEWIACIYVGSSGVSYYATWAKGRFTISKTSSTTVTLQMTSLTAADTATYFCARAGYVGAVYVTLTRLDLWGQGTLVTVSS
VL: AAVLTQTPSPVSAAVGGTVTISCQSSQSIYTNNDLAWYQQKPGQPPKLLIYDASKLASGVPSRFSGSGSGTQFTLTISGVQSDDAATYYCLGGYDDDADNAFGGGTEVVVK
notes: Chimeric rabbit/human antibody, human IgG1 constant parts with L234A and L235A (LALA)
Regarding B8, the EC50 in experiment [4] is 7.2 ng/mL; in experiment [1], 6.3 ng/mL; in experiment [2], 16.8 ng/mL; in experiment [6] it was 2.4 ng/mL. For the same molecule, the “hPD-1 blockade assay IC50” value in experiment [3] came to 657 ng/mL.

B9: MAB-19-0603 (antibody, IgG1, V domains shown)
VH: QVQLVESGGGLVQPGTSLRLSCSVSGFSLYSYNMGWVRQAPGKGLEYIGIISGGTIGHYASWAKGRFTISRDTSKTTLYLQMNSLTTEDTATYFCARAFYDDYDYNVWGPGTLVTVSS
VL: DIVMTQSPSSLSASVGDRVTITCQSSQSVYGNNQLSWYQQKPGKAPKLLIYQASKLETGVPSRFSGSGSGTDFTLTISSLQPEDFATYYCAGGYSSSSDTTFGGGTKVVIK
notes: as for B4
With B9, the EC50 was found to be 3.3 ng/mL in experiment [4] and 2.8 ng/mL in experiment [6]. Moreover, the “hPD-1 blockade assay IC50” value in experiment [5] was determined as 85 ng/mL.

B10: MAB-19-0618 (antibody, IgG1, V domains shown)
VH: QVQLVESGGGLVQPGTSLRLSCSVSGFSLYSYNMGWVRQAPGKGLEYIGIISGGTIGHYASWAKGRFTISRDTSKTTLYLQMNSLTTEDTATYFCARAFYDDYDYNVWGPGTLVTVSS
VL: AIQLTQSPSSLSASVGGTVTITCQSSQSVYGNNQLSWYQQKPGQPPKLLIYQASKLETGVPSRFRGSGSGTQFTLTISSLQSEDFATYYCAGGYSSSSDTTFGGGTEVVVK
notes: as for B4
As for B10, the EC50 worked out at 8 ng/mL in experiment [4] and 1.7 ng/mL in experiment [6]. For the same molecule, the “hPD-1 blockade assay IC50” value in experiment [5] came to 57 ng/mL.

B11: MAB-19-0613 (antibody, IgG1, V domains shown)
VH: QVQLVESGGGLVQPGTSLRLSCSVSGFSLYSYNMGWVRQAPGKGLEYIGIISGGTIGHYASWAKGRFTISRDTSKTTLYLQMNSLTTEDTATYFCARAFYDDYDYNVWGPGTLVTVSS
VL: DIQMTQSPSSLSASVGDRVTITCQSSQSVYGNNQLSWYQKKPGQAPKLLIYQASKLETGVPSRFSGSGSGTDFTLTISSLQPEDFATYYCAGGYSSSSDTTFGPGTKVDIK
notes: as for B4
Regarding B11, the EC50 in experiment [4] was 4.4 ng/mL; in experiment [6] it was 1.2 ng/mL. For the same molecule, the “hPD-1 blockade assay IC50” value in experiment [5] was 93 ng/mL.

B12: MAB-19-0608 (antibody, IgG1, V domains shown)
VH: QVQLVESGGGLVQPGTSLRLSCSVSGFSLYSYNMGWVRQAPGKGLEYIGIISGGTIGHYASWAKGRFTISRDTSKTTLYLQMNSLTTEDTATYFCARAFYDDYDYNVWGPGTLVTVSS
VL: DIQMTQSPSTLSASVGDRVTITCQSSQSVYGNNQLSWYQQKPGKAPKLLIYQASKLETGVPSRFSGSGSGTQFTLTISSLQPDDFASYYCAGGYSSSSDTTFGQGTKVEIK
notes: as for B4
With B12, the values for the EC50 in experiment [4] and in experiment [6] were 7.7 ng/mL and 2.8 ng/mL, respectively. The “hPD-1 blockade assay IC50” value in experiment [5] stood at 63 ng/mL.

Usually EC50 stands for the concentration needed to bring the measured effect to its halfway point.
